Reference: patent US20240376207A1 (JIANGSU HENGRUI PHARMACEUTICALS, published 2024)

T1: human PVRIG expressed on cells (human, UniProt Q6DKI7 41-326)
T1 sequence (looked up): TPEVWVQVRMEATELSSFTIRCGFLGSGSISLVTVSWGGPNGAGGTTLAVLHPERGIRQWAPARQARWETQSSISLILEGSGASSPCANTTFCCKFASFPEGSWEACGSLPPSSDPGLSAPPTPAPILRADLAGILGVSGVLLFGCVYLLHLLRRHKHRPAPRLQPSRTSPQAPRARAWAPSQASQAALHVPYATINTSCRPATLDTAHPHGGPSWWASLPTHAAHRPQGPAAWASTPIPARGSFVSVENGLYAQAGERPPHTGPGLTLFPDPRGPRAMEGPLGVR

T2: cynomolgus monkey PVRIG expressed on cells (cynomolgus monkey, UniProt A0A2K5WVV8 1-322)
T2 construct: whole, on cells; also called Monkey PVRIG FACS; cells overexpressing cynomolgus monkey PVRIG
T2 sequence: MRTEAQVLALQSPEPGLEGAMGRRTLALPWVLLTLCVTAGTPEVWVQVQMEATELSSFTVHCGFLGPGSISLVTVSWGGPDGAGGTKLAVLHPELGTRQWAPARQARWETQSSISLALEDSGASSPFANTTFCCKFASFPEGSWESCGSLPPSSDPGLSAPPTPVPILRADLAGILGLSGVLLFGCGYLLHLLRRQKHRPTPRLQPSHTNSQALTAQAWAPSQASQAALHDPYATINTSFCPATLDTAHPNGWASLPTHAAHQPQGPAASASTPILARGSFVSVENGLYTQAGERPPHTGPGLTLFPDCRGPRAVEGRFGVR

T3: mouse IgG2a Fc-tagged human PVRIG (h-PVRIG-mIgG2a Fc) recombinant protein (human, UniProt Q6DKI7 41-171, limits assumed)
T3 construct: bought from Acrobiosystems; not shown: mouse IgG2a Fc tag
T3 sequence (looked up): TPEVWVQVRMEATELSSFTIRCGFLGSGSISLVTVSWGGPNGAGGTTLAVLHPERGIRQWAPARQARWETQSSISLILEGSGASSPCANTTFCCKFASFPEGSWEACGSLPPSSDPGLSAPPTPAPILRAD

B1: anti-PVRIG antibody 151 (antibody, human IgG4 S228P, F234A L235A, V domains shown)
VH: HVQLVESGGGSVQAGGSLRLSCVASASGFTYRPYCMAWFRQAPGKEREAVAGIDIFGGTTYADSVKGRFTASRDNAGFSLFLQMNDLKPEDTAMYYCAAGDSPDGRCPPLGQGLNYWGQGTQVTVSS
notes: no light chain
B2: anti-PVRIG antibody 30 (antibody, human IgG4 S228P, F234A L235A, V domains shown)
VH: HVQLVESGGGSVQAGGSLRLSCEASGYSYSGDCMGWFRRAPGKERDEGVATIDNAGRIKYADSVKGRFTISHGNGKYILYLQMNSLKPEDTDMYYCAAGWTFGGNCSPADWGQGTQVTVSS
notes: no light chain
B3: positive antibody Tab5 (antibody, human IgG4 S228P, kappa, F234A L235A, V domains shown)
VH: EVQLVESGGGVVKPGGSLRLSCAASGFTFGTSSMNWVRQAPGKGLEWVAVISFDGTEIHYADSVKGRFTISRDNSKSTVFLQMNSLRPDDTALYYCAKGSGNIYFYSGMDVWGQGTTVTVSS
VL: DIQMTQSPSTLSASVGDRVTITCRAGQSISGWLAWFQQKPGKAPNLLIYETSTLESGVPSRFSGSGSGTEYTLTISSLQPDDFATYYCQQYYSYPLTFGQGTKVEIKR
notes: Variable regions of CPA.7.021 (WO2016134333A1) on human IgG4 (S228P/F234A/L235A/K447A) and human kappa constant regions
B4: anti-PVRIG antibody 38 (antibody, human IgG4 S228P, F234A L235A, V domains shown)
VH: QVQLVESGGGSVQAGGSLRLSCAASPSTYGPSDMAWFRQAPGKQREGVATISAAGRLTYYTDSVRGRFTISRDNAKNTMYLQMNSLKPEDTAMYYCAADFAGGSSLFADYKYWGQGTQVTVSS
notes: no light chain
B5: humanized anti-PVRIG/TIGIT bispecific antibody 1708-20H5 (bispecific antibody, human IgG4 S228P, kappa)
heavy: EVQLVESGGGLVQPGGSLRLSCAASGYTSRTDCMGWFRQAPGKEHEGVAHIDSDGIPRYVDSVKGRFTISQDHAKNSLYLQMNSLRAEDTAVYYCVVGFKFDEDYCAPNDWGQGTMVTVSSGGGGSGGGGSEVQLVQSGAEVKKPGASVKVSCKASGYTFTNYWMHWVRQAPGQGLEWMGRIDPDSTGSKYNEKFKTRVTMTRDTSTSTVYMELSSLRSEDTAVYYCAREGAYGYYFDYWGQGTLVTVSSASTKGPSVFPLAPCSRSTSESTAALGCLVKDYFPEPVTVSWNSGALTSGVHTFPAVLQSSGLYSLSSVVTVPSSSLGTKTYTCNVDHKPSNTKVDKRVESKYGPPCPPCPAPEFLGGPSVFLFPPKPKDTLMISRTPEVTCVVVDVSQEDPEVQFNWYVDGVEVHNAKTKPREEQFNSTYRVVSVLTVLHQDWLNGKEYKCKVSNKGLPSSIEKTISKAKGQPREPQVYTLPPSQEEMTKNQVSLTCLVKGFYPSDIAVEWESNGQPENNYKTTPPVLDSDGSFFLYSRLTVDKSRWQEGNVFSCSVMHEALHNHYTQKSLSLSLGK
light: DIQMTQSPSSLSASVGDRVTITCRASENIYSYLAWYQQKPGKSPKLLIYNARTLAEGVPSRFSGSGSGTDFTLTISSLQPEDFATYYCQYHSGSPLPFGGGTKVEIKRTVAAPSVFIFPPSDEQLKSGTASVVCLLNNFYPREAKVQWKVDNALQSGNSQESVTEQDSKDSTYSLSSTLTLSKADYEKHKVYACEVTHQGLSSPVTKSFNRGEC
B6: humanized anti-PVRIG/TIGIT bispecific antibody 1708-30H2 (bispecific antibody, human IgG4 S228P, kappa)
heavy: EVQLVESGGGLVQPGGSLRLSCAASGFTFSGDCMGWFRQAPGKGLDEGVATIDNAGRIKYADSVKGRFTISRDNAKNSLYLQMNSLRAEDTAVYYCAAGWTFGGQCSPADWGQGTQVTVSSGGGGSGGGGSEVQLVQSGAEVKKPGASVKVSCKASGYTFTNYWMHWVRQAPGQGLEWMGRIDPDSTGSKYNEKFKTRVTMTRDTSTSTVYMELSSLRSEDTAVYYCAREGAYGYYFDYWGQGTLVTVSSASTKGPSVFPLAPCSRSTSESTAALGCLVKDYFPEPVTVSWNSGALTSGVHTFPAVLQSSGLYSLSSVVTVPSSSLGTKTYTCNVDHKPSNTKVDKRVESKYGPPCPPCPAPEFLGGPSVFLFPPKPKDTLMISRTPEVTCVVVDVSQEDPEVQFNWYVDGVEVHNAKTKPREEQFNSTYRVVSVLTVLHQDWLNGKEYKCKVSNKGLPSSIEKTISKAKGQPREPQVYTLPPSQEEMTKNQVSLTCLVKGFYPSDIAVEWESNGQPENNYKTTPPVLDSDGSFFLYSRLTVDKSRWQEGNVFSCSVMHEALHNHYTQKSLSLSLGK
light: B5 light
B7: anti-PVRIG antibody 39 (antibody, human IgG4 S228P, F234A L235A, V domains shown)
VH: QVQLVESGGGSVQAGGSLRLSCAASRYTSRTDCMGWFRQAPGKEREGVAHIDSDGIPRYVESVKGRFTISQDHAKNTLYLQMNSLKPEDSATYYCVVGFKFGDYCAPNDWGQGTQVTVSS
notes: no light chain

Biological target: T1, human PVRIG expressed on cells
Assay: cell-based or functional assay

Binder	MLR IFNγ (pg/mL), 4 nM antibody [pg/mL]	MLR IFNγ (pg/mL), 20 nM antibody [pg/mL]	MLR IFNγ (pg/mL), 100 nM antibody [pg/mL]
B1	1500	2220	1800
B2	1680	1910	1580
B3	912	1420	2350
B4	1390	2020	2130

Biological target: T1, human PVRIG expressed on cells
Assay: FACS, cells overexpressing target
Procedure: (§1) The expression plasmid carrying human or cynomolgus monkey PVRIG gene sequence was transfected into HEK293 cells, and the over-expressing stable transfection monoclonal cell strain was obtained by antibiotic screening and infinite dilution. Overexpressing cells were seeded into a 96-well plate at 2×10⁵ cells/per well. The cells were centrifuged at 300 g for 5 min, the supernatant was then removed, 100 μL of the test antibody was added, and the mixture was incubated at 4° C. for 1 h. The mixture was centrifuged, the supernatant was removed, the plate was washed 3 times with 200 μL of wash buffer (PBS+2% FBS), and then 100 μL of an anti-human IgG secondary antibody (Invitrogen, A-11013) labeled with Alexa Fluor 488 diluted at 1:500 was added. The mixture was incubated at 4° C. for 1 h. The plate was centrifuged, and the supernatant was removed. The plate was washed 3 times with 200 μL of wash buffer (PBS+2% FBS). The cells were resuspended in 100 μL of PBS and tested on a flow cytometer (BD FACS Calibur or BD FACS Canto_II).
Binding of the humanized anti-PVRIG/TIGIT bispecific antibodies to human and cynomolgus monkey PVRIG and their blocking of the ligand of human PVRIG were detected according to the methods of Examples 4, 5 and 6.

Binder	EC50 [nM]
B5	0.075
B6	0.056
B3	0.789

Biological target: T1, human PVRIG expressed on cells
Assay: FACS, HEK293 cells overexpressing target
Source text: (§2) A flow cytometer (FACS) was used to detect binding properties of anti-PVRIG antibodies. A cell strain overexpressing human or cynomolgus monkey PVRIG was constructed, and after the addition of the antibody, the activity of the binding of the antibody to the antigen was detected by the addition of a secondary antibody.
as §1

Binder	EC50 [nM]
B7	0.004
B1	0.01
B3	2.13
B4	0.24

Biological target: T2, cynomolgus monkey PVRIG expressed on …
Assay: FACS, HEK293 cells overexpressing target
Source text: as §2, §1

Binder	EC50 [nM]	binding result
B7	6.97	
B1	2.23	
B2	0.02	
B3		no binding
B4	0.34	

Biological target: T3, mouse IgG2a Fc-tagged human PVRIG …
Assay: competition ELISA; coated h-PVRIG-mIgG2a Fc, competitor his-PVRL2
Procedure: In this experiment, by in vitro blocking experiment, the ability of the selected anti-PVRIG antibodies to block the binding of human PVRIG to its ligand human PVRL2 was detected. Specifically, a mouse IgG2a Fc-tagged human PVRIG recombinant protein (h-PVRIG-mIgG2a Fc) was coated on a 96-well microplate, an anti-PVRIG antibody was added to fully bind to and occupy an epitope, then his-tagged PVRL2 (PV2-H52E2, AcroBiosystem) was added, and the binding amount of PVRIG and PVRL2 was calculated by detecting the his tag. The IC₅₀ value of the anti-PVRIG antibody for blocking the PVRIG active site was calculated.
The h-PVRIG-mIgG2a Fc protein (at a concentration of 1 μg/mL) was coated on the 96-well microplate at 100 μL per well, and incubated overnight at 4° C. The plate was washed three times with wash buffer at 250 μL per well. For each wash, the plate was shaken for 10 s to ensure adequate cleaning. A blocking solution was added at 300 μL/well, and the plate was incubated at room temperature for 1 h. The plate was washed three times with wash buffer at 250 μL per well. For each wash, the plate was shaken for 10 s to ensure adequate cleaning. 50 μL of diluted test anti-PVRIG antibody and 50 μL of his-tagged ligand PVRL2 were added to each well, and the plate was incubated at 37° C. for 1 h. The plate was washed three times with wash buffer at 250 μL per well. The HRP-labeled anti-his-tagged secondary antibody (Genscrpit) diluted at 1:2000 was added at 100 μL per well. The plate was incubated at 37° C. for 1 h. The plate was washed three times with wash buffer at 250 μL per well. TMB was added at 100 μL/well, and the plate was incubated in the dark for 15 min. 0.16 M sulfuric acid was added at 50 μL/well. OD values at 450 nm were measured using a Thermo MμtLtiSkanFc microplate reader, and the IC₅₀ values of the anti-PVRIG antibodies blocking the binding of PVRIG to PVRL2 were calculated.

Binder	IC50 [nM]
B7	0.76
B1	0.37
B2	1.11
B3	1.16
B4	0.93
